# IntAct's records for PubMed 18566586
# B1: RAC-alpha serine/threonine-protein kinase (Mus musculus), P31750 (parent)
# chain: MNDVAIVKEGWLHKRGEYIKTWRPRYFLLKNDGTFIGYKERPQDVDQRESPLNNFSVAQCQLMKTERPRPNTFIIRCLQWTTVIERTFHVETPEEREEWATAIQTVADGLKRQEEETMDFRSGSPSDNSGAEEMEVSLAKPKHRVTMNEFEYLKLLGKGTFGKVILVKEKATGRYYAMKILKKEVIVAKDEVAHTLTENRVLQNSRHPFLTALKYSFQTHDRLCFVMEYANGGELFFHLSRERVFSEDRARFYGAEIVSALDYLHSEKNVVYRDLKLENLMLDKDGHIKITDFGLCKEGIKDGATMKTFCGTPEYLAPEVLEDNDYGRAVDWWGLGVVMYEMMCGRLPFYNQDHEKLFELILMEEIRFPRTLGPEAKSLLSGLLKKDPTQRLGGGSEDAKEIMQHRFFANIVWQDVYEKKLSPPFKPQVTSETDTRYFDEEFTAQMITITPPDQDDSMECVDSERRPHFPQFSYSASGTA
# Variants of: B1
# Settings: with hs90a_mouse Hsp90aa1, P07901
row,Variant,effect of a mutation on the interaction
1,MNDVAIVKEGWLHKRGEYIKTWRPRYFLLKNDGTFIGYKERPQDVDQRESPLNNFSVAQCQLMKTERPRPNTFIIRCLQWTTVIERTFHVETPEEREEWATAIQTVADGLKRQEEETMDFRSGSPSDNSGAEEMEVSLAKPKHRVTMNEFEYLKLLGKGTFGKVILVKEKATGRYYAMKILMKEVIVAKDEVAHTLTENRVLQNSRHPFLTALKYSFQTHDRLCFVMEYANGGELFFHLSRERVFSEDRARFYGAEIVSALDYLHSEKNVVYRDLKLENLMLDKDGHIKITDFGLCKEGIKDGATMKTFCGTPEYLAPEVLEDNDYGRAVDWWGLGVVMYEMMCGRLPFYNQDHEKLFELILMEEIRFPRTLGPEAKSLLSGLLKKDPTQRLGGGSEDAKEIMQHRFFANIVWQDVYEKKLSPPFKPQVTSETDTRYFDEEFTAQMITITPPDQDDSMECVDSERRPHFPQFSYSASGTA [K182M],increasing interaction
2,MNDVAIVKEGWLHKRGEYIKTWRPRYFLLKNDGTFIGYKERPQDVDQRESPLNNFSVAQCQLMKTERPRPNTFIIRCLQWTTVIERTFHVETPEEREEWATAIQTVADGLKRQEEETMDFRSGSPSDNSGAEEMEVSLAKPKHRVTMNEFEYLKLLGKGTFGKVILVKEKATGRYYAMKILKKEVIVAKDEVAHTLTENRVLQNSRHPFLTALKYSFQTHDMLCFVMEYANGGELFFHLSRERVFSEDRARFYGAEIVSALDYLHSEKNVVYRDLKLENLMLDKDGHIKITDFGLCKEGIKDGATMKTFCGTPEYLAPEVLEDNDYGRAVDWWGLGVVMYEMMCGRLPFYNQDHEKLFELILMEEIRFPRTLGPEAKSLLSGLLKKDPTQRLGGGSEDAKEIMQHRFFANIVWQDVYEKKLSPPFKPQVTSETDTRYFDEEFTAQMITITPPDQDDSMECVDSERRPHFPQFSYSASGTA [R222M],increasing interaction

# Variants of: B1
# Settings: with hs90a_mouse Hsp90aa1, P07901
# Remark: another data set of the same source
row,Variant,effect of a mutation on the interaction
1,MNDVAIVKEGWLHKRGEYIKTWRPRYFLLKNDGTFIGYKERPQDVDQRESPLNNFSVAQCQLMKTERPRPNTFIIRCLQWTTVIERTFHVETPEEREEWATAIQTVADGLKRQEEETMDFRSGSPSDNSGAEEMEVSLAKPKHRVTMNEFEYLKLLGKGTFGKVILVKEKATGRYYAMKILKKEVIVAKDEVAHTLTENRVLQNSRHPFLTALKYSFQTHDRLCFVMEYANGGELFFHLSRERVFSEDRARFYGAEIVSALDYLHSEKNVVYRDLKLENLMLDKDGHIKITDFGLCKEGIKDGATMKTFCGTPEYLAPEVLEDNDYGRAVDWWGLGVVMYEMMCGRLPFYNQDHEKLFELILMEEIRFPRTLGPEAKSLLSGLLKKDPTQRLGGGSEDAKEIMQHRFFANIVWQDVYEKKLSPPFKPQVTSETDTRYFDEEFTAQMITIAPPDQDDSMECVDSERRPHFPQFSYSASGTA [T450A],increasing interaction

# Variants of: B1
# Settings: with hs90a_mouse Hsp90aa1, P07901
# Remark: another data set of the same source
row,Variant,effect of a mutation on the interaction
1,MNDVAIVKEGWLHKRGEYIKTWRPRYFLLKNDGTFIGYKERPQDVDQRESPLNNFSVAQCQLMKTERPRPNTFIIRCLQWTTVIERTFHVETPEEREEWATAIQTVADGLKRQEEETMDFRSGSPSDNSGAEEMEVSLAKPKHRVTMNEFEYLKLLGKGTFGMVILVKEKATGRYYAMKILKKEVIVAKDEVAHTLTENRVLQNSRHPFLTALKYSFQTHDRLCFVMEYANGGELFFHLSRERVFSEDRARFYGAEIVSALDYLHSEKNVVYRDLKLENLMLDKDGHIKITDFGLCKEGIKDGATMKTFCGTPEYLAPEVLEDNDYGRAVDWWGLGVVMYEMMCGRLPFYNQDHEKLFELILMEEIRFPRTLGPEAKSLLSGLLKKDPTQRLGGGSEDAKEIMQHRFFANIVWQDVYEKKLSPPFKPQVTSETDTRYFDEEFTAQMITITPPDQDDSMECVDSERRPHFPQFSYSASGTA [K163M],increasing interaction

# Variants of: B1
# Settings: with hs90a_mouse Hsp90aa1, P07901
# Remark: another data set of the same source
row,Variant,effect of a mutation on the interaction
1,MNDVAIVKEGWLHKRGEYIKTWRPRYFLLKNDGTFIGYKERPQDVDQRESPLNNFSVAQCQLMKTERPRPNTFIIRCLQWTTVIERTFHVETPEEREEWATAIQTVADGLKRQEEETMDFRSGSPSDNSGAEEMEVSLAKPKHRVTMNEFEYLKLLGKGTFGKVILVKEKATGRYYAMKILKKEVIVAKDEVAHTLTENRVLQNSRHPFLTALKYSFQTHDRLCFVMEYANGGELFFHLSRERVFSEDRARFYGAEIVSALDYLHSEKNVVYRDLKLENLMLDKDGHIKITDFGLCKEGIKDGATMKTFCGTPEYLAPEVLEDNDYGRAVDWWGLGVVMYEMMCGRLPFYNQDHEKLFELILMEEIRFPRTLGPEAKSLLSGLLKKDPTQRLGGGSEDAKEIMQHRFFANIVWQDVYEKKLSPPFKPQVTSETDTRYFDEEFAAQMITITPPDQDDSMECVDSERRPHFPQFSYSASGTA [T443A],increasing interaction
